Values quoted from earlier work in article PMC9792189.

Molecular target: SARS-CoV-2 S1/RBD (target in cited aptamer papers) (SARS-CoV-2) (UniProt P0DTC2)
Assay: SPR

Question: Which Kd does the source give for “ATTACCGATGGCTTGTTTGTAATGTAGGGTTCCGTCGGAT [Aptamer-2]” here?
Answer: 27 nM

Question: With “TTCCGGTTAATTTATGCTCTACCCGTCCACCTACCGGAA [MSA1T]” as the sequence, how does the Kd read?
Answer: 2.8 nM

Question: With “ACGGGTTTGGCGTCGGGCCTGGCGGGGGGATAGTGCGGT [MSA5T]” as the sequence, how does the Kd read?
Answer: 10.1 nM

Question: For “AAAGCCACAACGAGCTCGGGTGAAAGCAGTCCGTTGAGTAGGCTTGCGGCTGCGTGGCATATCGATT [SSapt1]”, which Kd is on record?
Answer: 105 nM

Question: Which Kd does the source give for “TTCCGGTTAATTTATGCTCTACCCGTCCACCTACCGGAATTTTTTTTTTTTTTTTTTTTTTTTTTTTTTACGGGTTTGGCGTCGGGCCTGGCGGGGGGATAGTGCGGT [DSA1N5]” here?
Answer: 0.51 nM

Question: Which Kd does the source give for “TCGAGTGGCTTGTTTGTAATGTAGGGTTCCGGTCGTGGGT [Aptamer-1]” here?
Answer: 28 nM

Question: Which Kd does the source give for GGGGTGGGGTAGTGGTATGGAGCG [XN-268s] here?
Answer: 4.26 nM

Question: Which Kd does the source give for “CAGCACCGACCTTGTGCTTTGGGAGTGCTGGTCCAAGGGCGTTAATGGACA [CoV2-RBD-1C]” here?
Answer: 3.1 nM
